The text below walks through data of the supplement of paper PMC10567573.

B1: CASP6 (parent)
chain: TCADRDNLTRRFSDLGFEVKCFND
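Also: lentivirally expressed fusions sorted by FACS into six bins by GFP to DsRed ratio, PSI derived from sequencing read proportions per bin multiplied by bin number.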

The variants in the series derive from B1. The series is described as follows: protein stability index of a GFP-peptide fusion (GPS, HEK-293T) (PSI 1-6); higher = more stable. The settings on record: c terminus: a fixed tail appended.
Regarding TCADRDNLTRGFSDLGFEVKCFND [R11G], the protein stability index worked out at 3.36.

TCADRDNLTRHFSDLGFEVKCFND [R11H]: the protein stability index stood at 3.5. For TCADRDNLTRQFSDLGFEVKCFND [R11Q] the value was 3.5; for TCADRDNLTRVFSDLGFEVKCFND [R11V], 2.76. For TCADRDNLTRWFSDLGFEVKCFND [R11W] the value was 1.62. For TCADRDNLTRLFSDLGFEVKCFND [R11L] the value was 3.12; for TCADRDNLTRSFSDLGFEVKCFND [R11S], 3.57. Consider TCADRDNLTRIFSDLGFEVKCFND [R11I], for which the protein stability index amounted to 2.47. For TCADRDNLTRKFSDLGFEVKCFND [R11K] the value was 3.65; for TCADRDNLTRYFSDLGFEVKCFND [R11Y], 2.35; for TCADRDNLTRMFSDLGFEVKCFND [R11M], 3.79. In the case of TCADRDNLTRTFSDLGFEVKCFND [R11T], the protein stability index worked out at 3.2. As for TCADRDNLTRPFSDLGFEVKCFND [R11P], the protein stability index was 3.68.

As for TCADRDNLTRFFSDLGFEVKCFND [R11F], the protein stability index was 2.33. As for TCADRDNLTRNFSDLGFEVKCFND [R11N], the figure is 3.76; as for TCADRDNLTRCFSDLGFEVKCFND [R11C], 2.66; as for TCADRDNLTREFSDLGFEVKCFND [R11E], 4.2. On to TCADRDNLTRAFSDLGFEVKCFND [R11A], for which the protein stability index amounted to 3.5. As for TCADRDNLTRDFSDLGFEVKCFND [R11D], the figure is 4.12; as for TCADRDKLTRRFSDLGFEVKCFND [N7K], 3.06; as for TCADRDDLTRRFSDLGFEVKCFND [N7D], 3.41. For TCADRDALTRRFSDLGFEVKCFND [N7A] the value was 2.89; for TCADRDTLTRRFSDLGFEVKCFND [N7T], 3.52; for TCADRDELTRRFSDLGFEVKCFND [N7E], 3.55.

TCADRDWLTRRFSDLGFEVKCFND [N7W]: the protein stability index was 2.52. For TCADRDHLTRRFSDLGFEVKCFND [N7H] the value was 3.63. As for TCADRDLLTRRFSDLGFEVKCFND [N7L], the protein stability index was 2.98. In the case of TCADRDMLTRRFSDLGFEVKCFND [N7M], the protein stability index was 3.35.

Take TCADRDRLTRRFSDLGFEVKCFND [N7R]: the protein stability index is 2.98.

Regarding TCADRDPLTRRFSDLGFEVKCFND [N7P], the protein stability index amounted to 3.4. With TCADRDFLTRRFSDLGFEVKCFND [N7F], the protein stability index came to 2.78. As for TCADRDSLTRRFSDLGFEVKCFND [N7S], the figure is 3.51. Take TCADRDILTRRFSDLGFEVKCFND [N7I]: the protein stability index is 3.22. As to TCADRDCLTRRFSDLGFEVKCFND [N7C], the protein stability index amounted to 3.13.

As for TCADRDVLTRRFSDLGFEVKCFND [N7V], the protein stability index turned out to be 3.04. TCADRDYLTRRFSDLGFEVKCFND [N7Y]: the protein stability index was determined as 2.72. Consider TCADRDQLTRRFSDLGFEVKCFND [N7Q], for which the protein stability index turned out to be 2.92. Consider TCADRDGLTRRFSDLGFEVKCFND [N7G], for which the protein stability index turned out to be 3.71.

In the case of TCADLDNLTRRFSDLGFEVKCFND [R5L], the protein stability index is 3.5. As for TCADDDNLTRRFSDLGFEVKCFND [R5D], the figure is 4.21. As for TCADWDNLTRRFSDLGFEVKCFND [R5W], the protein stability index turned out to be 2.62. For TCADCDNLTRRFSDLGFEVKCFND [R5C] the value was 2.65; for TCADSDNLTRRFSDLGFEVKCFND [R5S], 3.8.

In the case of TCADPDNLTRRFSDLGFEVKCFND [R5P], the protein stability index amounted to 3.98. As for TCADQDNLTRRFSDLGFEVKCFND [R5Q], the figure is 3.44; as for TCADTDNLTRRFSDLGFEVKCFND [R5T], 3.48; as for TCADADNLTRRFSDLGFEVKCFND [R5A], 4.37. TCADEDNLTRRFSDLGFEVKCFND [R5E]: the protein stability index came out at 3.58.

Regarding TCADKDNLTRRFSDLGFEVKCFND [R5K], the protein stability index was found to be 3.77.

Regarding TCADVDNLTRRFSDLGFEVKCFND [R5V], the protein stability index amounted to 3.5. For TCADYDNLTRRFSDLGFEVKCFND [R5Y] the value was 2.92. TCADFDNLTRRFSDLGFEVKCFND [R5F]: the protein stability index stood at 2.43. As for TCADHDNLTRRFSDLGFEVKCFND [R5H], the figure is 2.86. As for TCADMDNLTRRFSDLGFEVKCFND [R5M], the figure is 3.6; as for TCADIDNLTRRFSDLGFEVKCFND [R5I], 2.71; as for TCADNDNLTRRFSDLGFEVKCFND [R5N], 3.33. For TCADGDNLTRRFSDLGFEVKCFND [R5G], the protein stability index was 3.64.

In the case of TCADRDNLTGRFSDLGFEVKCFND [R10G], the protein stability index was found to be 3.48. For TCADRDNLTPRFSDLGFEVKCFND [R10P] the value was 3.39; for TCADRDNLTDRFSDLGFEVKCFND [R10D], 3.96.

On to TCADRDNLTNRFSDLGFEVKCFND [R10N], for which the protein stability index came to 3.56. For TCADRDNLTMRFSDLGFEVKCFND [R10M] the value was 2.83. As for TCADRDNLTYRFSDLGFEVKCFND [R10Y], the figure is 2.65; as for TCADRDNLTERFSDLGFEVKCFND [R10E], 3.83; as for TCADRDNLTQRFSDLGFEVKCFND [R10Q], 3.33. For TCADRDNLTHRFSDLGFEVKCFND [R10H] the value was 3.16; for TCADRDNLTLRFSDLGFEVKCFND [R10L], 3.07. Turning to TCADRDNLTSRFSDLGFEVKCFND [R10S], the protein stability index was found to be 3.29. On to TCADRDNLTKRFSDLGFEVKCFND [R10K], for which the protein stability index was 3.75.

For TCADRDNLTWRFSDLGFEVKCFND [R10W], the protein stability index stood at 2.17. Regarding TCADRDNLTIRFSDLGFEVKCFND [R10I], the protein stability index was found to be 2.48. As to TCADRDNLTCRFSDLGFEVKCFND [R10C], the protein stability index worked out at 2.59.

For TCADRDNLTVRFSDLGFEVKCFND [R10V], the protein stability index came out at 3.2. For TCADRDNLTFRFSDLGFEVKCFND [R10F] the value was 2.98; for TCADRDNLTTRFSDLGFEVKCFND [R10T], 3.61. For TCADRDNLTARFSDLGFEVKCFND [R10A] the value was 3.59; for TCADRDNLTRRSSDLGFEVKCFND [F12S], 4.08. As for TCADRDNLTRRPSDLGFEVKCFND [F12P], the figure is 4.32; as for TCADRDNLTRRISDLGFEVKCFND [F12I], 2.98; as for TCADRDNLTRRLSDLGFEVKCFND [F12L], 3.33. Take TCADRDNLTRRASDLGFEVKCFND [F12A]: the protein stability index was determined as 4.07. For the variant TCADRDNLTRRCSDLGFEVKCFND [F12C], the protein stability index is 3.08. As for TCADRDNLTRRDSDLGFEVKCFND [F12D], the figure is 4.23; as for TCADRDNLTRRESDLGFEVKCFND [F12E], 4.7; as for TCADRDNLTRRNSDLGFEVKCFND [F12N], 4.35. Turning to TCADRDNLTRRVSDLGFEVKCFND [F12V], the protein stability index was found to be 4.21. Turning to TCADRDNLTRRGSDLGFEVKCFND [F12G], the protein stability index was determined as 3.81. For TCADRDNLTRRMSDLGFEVKCFND [F12M] the value was 3.42; for TCADRDNLTRRKSDLGFEVKCFND [F12K], 4.1; for TCADRDNLTRRQSDLGFEVKCFND [F12Q], 3.97. For TCADRDNLTRRTSDLGFEVKCFND [F12T] the value was 3.96.

Turning to TCADRDNLTRRRSDLGFEVKCFND [F12R], the protein stability index stood at 3.35. As for TCADRDNLTRRHSDLGFEVKCFND [F12H], the figure is 4.07; as for TCAIRDNLTRRFSDLGFEVKCFND [D4I], 2.24.
